Measurements published in PMC3979729.

Biological target: TNFR (human (endogenous in primary CD4+ T cells)) (UniProt P19438)
Chain of UniProt P19438 (P19438 30-455): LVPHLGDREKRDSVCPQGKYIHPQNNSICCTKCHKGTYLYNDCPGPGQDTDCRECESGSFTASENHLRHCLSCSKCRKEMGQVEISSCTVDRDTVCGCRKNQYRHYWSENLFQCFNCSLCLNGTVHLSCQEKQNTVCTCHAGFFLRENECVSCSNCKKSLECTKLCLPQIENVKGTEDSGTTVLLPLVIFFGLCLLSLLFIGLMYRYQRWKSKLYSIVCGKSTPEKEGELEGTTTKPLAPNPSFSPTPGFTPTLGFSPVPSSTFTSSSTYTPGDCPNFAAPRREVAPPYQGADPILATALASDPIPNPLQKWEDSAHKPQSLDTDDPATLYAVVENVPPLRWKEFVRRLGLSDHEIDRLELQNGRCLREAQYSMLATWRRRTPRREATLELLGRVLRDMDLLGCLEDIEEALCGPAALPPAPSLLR

## tumor necrosis factor alpha (TNF-α) (from UniProt P01375 1-233) (ligand)
  other (% necroptosis): 0.3
